Experimental data published in article PMC7806768.

Target: R.CcoLI(D225N) mutant (Campylobacter coli)
Assay: SEC; Superdex 200 HR 10/30; samples 2.3 uM; 10 mM MES pH 6.0, 200 mM NaCl, 1 mM TCEP; size estimated against marker proteins (aldolase, conalbumin, chymotrypsinogen A, ribonuclease A)

R.CcoLI(D225N) mutant (enzyme)
stoichiometry N: 2
